In the experiment the target is T1, Rae1 (NTE-deleted), chain of the crystallized heterotrimer (mouse, UniProt Q8C570 24-368).
T1 sequence (looked up): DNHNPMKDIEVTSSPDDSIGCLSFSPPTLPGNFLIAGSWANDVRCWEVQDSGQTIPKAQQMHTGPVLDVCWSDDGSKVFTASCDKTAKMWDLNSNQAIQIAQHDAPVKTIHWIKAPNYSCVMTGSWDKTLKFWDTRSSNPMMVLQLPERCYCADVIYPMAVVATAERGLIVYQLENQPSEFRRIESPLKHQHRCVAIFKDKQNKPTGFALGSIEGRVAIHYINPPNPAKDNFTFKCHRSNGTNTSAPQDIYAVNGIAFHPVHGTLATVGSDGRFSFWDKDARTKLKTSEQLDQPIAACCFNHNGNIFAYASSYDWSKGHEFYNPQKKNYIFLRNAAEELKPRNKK
The experiment is described as follows: crystal structure.

B1: Nup98 GLEBS region, chain of the crystallized heterotrimer (domain or fragment)
chain: not shown
Take B1: the binding result is recorded as “binds”.
